US20030103948A1 (NEORX, published 2003)

Target: T1, CD20 (human, UniProt P11836 1-297)
T1 construct: whole, on cells; also called CD20-positive Ramos cell line; Ramos cells
T1 sequence (looked up): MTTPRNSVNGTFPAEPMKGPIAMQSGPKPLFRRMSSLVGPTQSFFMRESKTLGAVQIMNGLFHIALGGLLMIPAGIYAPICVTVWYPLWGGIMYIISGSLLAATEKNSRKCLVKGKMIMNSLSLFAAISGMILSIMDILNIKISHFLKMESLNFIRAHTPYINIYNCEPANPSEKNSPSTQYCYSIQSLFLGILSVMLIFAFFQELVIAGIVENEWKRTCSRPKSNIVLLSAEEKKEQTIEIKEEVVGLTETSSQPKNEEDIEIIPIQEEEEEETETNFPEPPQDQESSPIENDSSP
Assay: saturation binding of radiolabeled antibody to Ramos cells (10^7 cells), nonlinear regression
Procedure: Avidity was determined using saturation binding experiments that measure specific binding of radiolabeled mAb or fusion protein (0.025-50 ng/ml) at equilibrium in the presence of excess antigen (10⁷ cells). Nonspecific binding was determined in the presence of excess cold mAb or fusion protein (50 μg/ml). […] The equilibrium dissociation constant (Kd) was calculated from nonlinear regression analysis of nM bound vs. nM radioligand using immunoreactivity-adjusted antibody concentrations.
Kd and Kₐ were calculated using nonlinear regression analysis of nM bound vs. nM radioligand.

B1: B9E9 mAb (antibody, V domains shown)
VH: QVQLVQSGAELVKPGASVKMSCKASGYTFTSYNMHWVKQTPGQGLEWIGAIYPGNGDTSYNQKFKGKATLTADKSSSTAYMQLSSLTSEDSAVYYCARAQLRPNYWYFDVWGAGTTVTVSS
VL: DIVLSQSPAILSASPGEKVTMTCRASSSVSYMHWYQQKPGSSPKPWIYATSNLASGVPARFSGSGSGTSYSLTISRVEAEDAATYYCQQWISNPPTFGAGTKLELK
modifications: Used unlabelled, fluorescein-labelled (FACS tracer) and radiolabelled (avidity assay).
notes: also called divalent B9E9 antibody; murine anti-CD20 antibody B9E9
- Ka: 1.02e+08 M⁻¹
- Kd: 9.75 nM
